Patent US20120034229A1 (UNIVERSITE CLAUDE BERNARD LYON 1, published 2012)

Tests used:
[1] = molecular target: T1, recombinant LG4/5 fragment of chain alpha3 of human laminin-5 (human, UniProt Q16787 2981-3333, limits assumed); experiment: Western blot of the purified recombinant LG4/5 fragment
T1 construct: Recombinantly expressed and purified on heparin as in Okamoto et al. 2003; also called alpha3LG4/5 fragment; LG4/5 domain
T1 sequence: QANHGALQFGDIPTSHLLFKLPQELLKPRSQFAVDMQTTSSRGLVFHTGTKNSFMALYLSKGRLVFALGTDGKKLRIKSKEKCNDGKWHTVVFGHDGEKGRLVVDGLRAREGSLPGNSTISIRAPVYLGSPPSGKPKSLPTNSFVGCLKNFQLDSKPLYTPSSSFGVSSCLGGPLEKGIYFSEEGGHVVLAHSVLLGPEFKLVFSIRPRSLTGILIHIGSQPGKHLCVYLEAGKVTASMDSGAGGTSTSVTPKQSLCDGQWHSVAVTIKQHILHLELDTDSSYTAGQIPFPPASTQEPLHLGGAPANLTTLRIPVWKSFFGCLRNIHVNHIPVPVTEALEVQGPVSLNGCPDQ

[2] = molecular target: T2, mature form of alpha3 lacking the LG4/5 domain (human, UniProt Q16787-1 28-1348, limits assumed); experiment: Western blot of purified LN5, reducing SDS-PAGE
T2 construct: domain: mature form of alpha3 lacking the LG4/5 domain; Alpha3 subunit of LN5 purified from keratinocyte culture medium, reducing SDS-PAGE; also called alpha3 chain of mature LN5
T2 sequence (looked up): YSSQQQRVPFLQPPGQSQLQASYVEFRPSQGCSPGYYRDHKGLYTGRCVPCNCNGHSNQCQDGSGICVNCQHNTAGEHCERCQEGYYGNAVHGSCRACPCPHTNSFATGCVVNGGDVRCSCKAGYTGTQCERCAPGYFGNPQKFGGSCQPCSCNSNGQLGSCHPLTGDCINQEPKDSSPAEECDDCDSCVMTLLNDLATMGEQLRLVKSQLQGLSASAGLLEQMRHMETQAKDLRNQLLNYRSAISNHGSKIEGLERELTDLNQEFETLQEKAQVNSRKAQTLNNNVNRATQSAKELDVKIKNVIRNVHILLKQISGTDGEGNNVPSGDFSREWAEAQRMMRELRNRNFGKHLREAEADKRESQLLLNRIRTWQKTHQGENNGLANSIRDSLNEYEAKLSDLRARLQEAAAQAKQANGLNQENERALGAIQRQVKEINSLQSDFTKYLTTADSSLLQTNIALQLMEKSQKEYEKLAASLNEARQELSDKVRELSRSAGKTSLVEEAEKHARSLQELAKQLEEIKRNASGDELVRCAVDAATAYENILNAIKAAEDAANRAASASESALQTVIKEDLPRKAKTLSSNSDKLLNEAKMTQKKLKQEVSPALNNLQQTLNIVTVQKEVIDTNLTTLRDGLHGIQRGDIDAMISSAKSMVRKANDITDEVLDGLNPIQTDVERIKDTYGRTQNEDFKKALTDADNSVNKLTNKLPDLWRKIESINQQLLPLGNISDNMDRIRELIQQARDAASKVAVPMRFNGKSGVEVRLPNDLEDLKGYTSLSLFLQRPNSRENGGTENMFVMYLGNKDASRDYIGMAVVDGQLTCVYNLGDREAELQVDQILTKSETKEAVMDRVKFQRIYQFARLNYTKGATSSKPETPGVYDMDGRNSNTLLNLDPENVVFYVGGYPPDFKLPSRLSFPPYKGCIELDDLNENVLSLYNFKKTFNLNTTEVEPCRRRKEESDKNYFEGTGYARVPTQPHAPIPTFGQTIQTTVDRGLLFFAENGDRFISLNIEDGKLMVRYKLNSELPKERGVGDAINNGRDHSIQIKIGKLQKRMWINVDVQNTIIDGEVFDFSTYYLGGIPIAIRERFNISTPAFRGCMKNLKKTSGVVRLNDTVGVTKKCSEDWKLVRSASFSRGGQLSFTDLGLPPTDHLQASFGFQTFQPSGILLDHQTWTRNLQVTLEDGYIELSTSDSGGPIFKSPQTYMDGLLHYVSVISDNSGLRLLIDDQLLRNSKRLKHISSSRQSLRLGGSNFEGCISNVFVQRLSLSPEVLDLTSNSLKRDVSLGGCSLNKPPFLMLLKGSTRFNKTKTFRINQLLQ

B1: 1H12 monoclonal antibody produced by the hybridoma cell line named 1H12 (C.N.C.M. I-3890) (antibody, V domains shown)
VH: VKLQQSGPELVKPGASVKISCKTSGYTFTEYTIHWVKQSHGKTLEWIGGINPKNGDTSYNQKFKGKATLTVDKSSNTAYMEFRSLTSEDSAVYYCASPDLPPMDYWGQGTTVTVSS
VL: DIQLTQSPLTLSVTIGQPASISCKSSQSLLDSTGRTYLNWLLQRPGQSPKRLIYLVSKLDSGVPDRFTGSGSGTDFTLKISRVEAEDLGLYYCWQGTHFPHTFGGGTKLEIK
notes: Mouse IgG1 kappa from hybridoma (supernatant or ascites); Ends of the V domains come from PCR primers; also called 1H12 mAb; mAb 1H12
- binding result [1]: binds
- binding result [2]: no binding
